The values that follow come from patent US6342219.

The target in this assay is VEGF:Flk-1 complex (VEGF associated with sFlk-1) (human; mouse) (UniProt P15692). The assay can be described thus: capture ELISA; biotinylated sFlk-1 complexed with VEGF titrated onto antibody-coated wells; concentration giving 50% maximal binding; * extrapolated value.

pEC50: −log10 of the molar value.

For orientation: pEC50 means −log10 of the EC50, conventionally taken in molar units.

Chain of A4.6.1 (mouse anti-human VEGF monoclonal antibody from Genentech) (VH): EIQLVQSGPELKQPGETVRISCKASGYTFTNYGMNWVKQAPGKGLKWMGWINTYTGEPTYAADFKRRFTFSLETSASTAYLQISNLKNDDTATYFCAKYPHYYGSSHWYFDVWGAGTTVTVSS
Chain of A4.6.1 (mouse anti-human VEGF monoclonal antibody from Genentech) (VL): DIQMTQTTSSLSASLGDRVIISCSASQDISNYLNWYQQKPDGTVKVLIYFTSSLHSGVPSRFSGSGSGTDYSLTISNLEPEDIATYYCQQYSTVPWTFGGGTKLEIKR
Chain of VEGF:Flk-1 complex (VEGF associated with sFlk-1) (human; mouse) (P15692 other isoform, or with tags, fused parts or gaps limits assumed, chain 1 of 2): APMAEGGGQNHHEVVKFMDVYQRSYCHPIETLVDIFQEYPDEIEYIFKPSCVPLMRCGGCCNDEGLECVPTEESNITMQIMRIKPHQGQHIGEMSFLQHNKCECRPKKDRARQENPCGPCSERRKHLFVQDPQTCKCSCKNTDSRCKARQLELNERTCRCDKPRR
Chain of VEGF:Flk-1 complex (VEGF associated with sFlk-1) (human; mouse) (P35918 20-762 limits assumed, chain 2 of 2, further chain): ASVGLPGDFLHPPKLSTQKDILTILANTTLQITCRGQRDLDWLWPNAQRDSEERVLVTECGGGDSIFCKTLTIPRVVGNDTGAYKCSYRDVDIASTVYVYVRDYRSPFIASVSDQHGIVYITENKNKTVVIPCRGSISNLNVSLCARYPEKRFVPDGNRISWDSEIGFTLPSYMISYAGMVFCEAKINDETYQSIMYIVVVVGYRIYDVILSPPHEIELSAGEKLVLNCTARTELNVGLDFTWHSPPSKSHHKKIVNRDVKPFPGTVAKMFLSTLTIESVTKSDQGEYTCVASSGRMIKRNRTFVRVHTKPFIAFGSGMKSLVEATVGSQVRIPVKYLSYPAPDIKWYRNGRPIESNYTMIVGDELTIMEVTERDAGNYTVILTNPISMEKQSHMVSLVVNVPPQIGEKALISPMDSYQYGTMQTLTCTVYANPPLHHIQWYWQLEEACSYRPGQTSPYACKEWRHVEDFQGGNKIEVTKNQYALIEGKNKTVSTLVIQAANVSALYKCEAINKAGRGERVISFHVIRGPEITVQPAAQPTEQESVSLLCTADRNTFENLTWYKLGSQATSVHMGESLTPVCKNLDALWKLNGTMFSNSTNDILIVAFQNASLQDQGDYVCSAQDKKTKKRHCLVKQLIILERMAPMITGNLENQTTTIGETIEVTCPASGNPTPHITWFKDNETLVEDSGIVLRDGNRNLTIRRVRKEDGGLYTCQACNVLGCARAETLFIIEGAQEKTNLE

As for “A4.6.1 (mouse anti-human VEGF monoclonal antibody from Genentech)”, the pEC50 was 6.30.
